Assay results: US4609626A, “Method for producing S-adenosyl-L-homocysteine hydrolase” (Nippon Zeon Co., Ltd., priority 1983, dated 1986)

T1: S-adenosyl-L-homocysteine hydrolase (SAHase) from Alcaligenes faecalis (IFO 12669) (Alcaligenes faecalis, UniProt A0A2U2BLR9)
T1 sequence (A0A2U2BLR9 1-465): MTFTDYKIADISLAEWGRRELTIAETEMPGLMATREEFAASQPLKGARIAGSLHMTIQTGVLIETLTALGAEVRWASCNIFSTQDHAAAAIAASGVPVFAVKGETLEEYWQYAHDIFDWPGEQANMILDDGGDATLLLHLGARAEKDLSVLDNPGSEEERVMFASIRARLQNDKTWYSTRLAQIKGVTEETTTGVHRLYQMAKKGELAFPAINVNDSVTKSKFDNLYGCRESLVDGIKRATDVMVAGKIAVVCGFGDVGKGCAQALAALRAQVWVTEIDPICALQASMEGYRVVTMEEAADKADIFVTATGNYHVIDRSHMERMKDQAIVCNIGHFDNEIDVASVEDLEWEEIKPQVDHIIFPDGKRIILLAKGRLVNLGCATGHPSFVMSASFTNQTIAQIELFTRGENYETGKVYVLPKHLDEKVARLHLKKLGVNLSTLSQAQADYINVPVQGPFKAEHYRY


Experiments:
[1] = target: T1, S-adenosyl-L-homocysteine hydrolase (SAHase) from Alcaligenes faecalis (IFO 12669); conditions: read-out: Km for SAH; purified crystalline SAHase of Example 1
Experimental: (§1) Then, the reaction is stopped by adding 0.1 ml of 30% perchloric acid. Then, 0.9 ml of 0.5M phosphate buffer (pH 7.0) was added to the reaction mixture. The resulting precipitate is removed by centrifugal separation. The supernatant obtained is analyzed by high-performance liquid chromatography (Model 638-30 made by Hitachi Limited; column Cosmocil 5C18 ; eluent 0.2M KH2 PO4 /methanol=90/10 (V/v); detector UV 260 nm) to determine the amount of SAH produced. The SAH synthesizing enzyme activity is expressed in units. One unit is defined as the amount of the enzyme which is required to form 1 micromole of SAH per minute.
(§2) SAH is reacted with SAHase, and the resulting AdR is converted to inosine in the presence of an excess of adenosine deaminase. The speed of the decrease of the absorbance at 265 nm at this time is measured. Specifically, 475 microliters of 10 mM phosphate buffer, 10 microliters of 2.5 mM SAH, 5 microliters of adenosine deaminase (Type III produced by Sigma Company) and 10 microliters of an enzyme solution are reacted at 25° C., and the speed of the decrease of the absorbance at 265 nm at this time is measured to determine the amount of SAH hydrolyzed. The SAH hydrolysis enzyme activity is expressed in units. One unit is defined as the amount of the enzyme which is required to hydrolyze 1 micromole of SAH per minute.

[2] = substrate: Nc1ncnc2c1ncn2[C@@H]1O[C@H](CO)[C@@H](O)[C@H]1O; assay: purified protein, by the assay type; conditions: other: purified crystalline SAHase of Example 1
Experimental: as §1, §2

[3] = substrate: N[C@@H](CCS)C(=O)O; assay: purified protein, by the assay type; conditions: other: purified crystalline SAHase of Example 1

Km [1]	Molecule	Km [2]	Km [3]
10 µM	Nc1ncnc2c1ncn2[C@@H]1O[C@H](CSCC[C@H](N)C(=O)O)[C@@H](O)[C@H]1O [SAH, S-adenosyl-L-homocysteine]		
	S-adenosyl-L-homocysteine hydrolase (SAHase) from Alcaligenes faecalis (IFO 12669) (Alcaligenes faecalis) (protein) MTFTDYKIADISLAEWGRRELTIAETEMPGLMATREEFAASQPLKGARIAGSLHMTIQTGVLIETLTALGAEVRWASCNIFSTQDHAAAAIAASGVPVFAVKGETLEEYWQYAHDIFDWPGEQANMILDDGGDATLLLHLGARAEKDLSVLDNPGSEEERVMFASIRARLQNDKTWYSTRLAQIKGVTEETTTGVHRLYQMAKKGELAFPAINVNDSVTKSKFDNLYGCRESLVDGIKRATDVMVAGKIAVVCGFGDVGKGCAQALAALRAQVWVTEIDPICALQASMEGYRVVTMEEAADKADIFVTATGNYHVIDRSHMERMKDQAIVCNIGHFDNEIDVASVEDLEWEEIKPQVDHIIFPDGKRIILLAKGRLVNLGCATGHPSFVMSASFTNQTIAQIELFTRGENYETGKVYVLPKHLDEKVARLHLKKLGVNLSTLSQAQADYINVPVQGPFKAEHYRY	37 µM	930 µM
